Target: EGFP-RABL2B (UniProt Q9UNT1)
Assay: co-immunoprecipitation (IP anti-EGFP, Western blot anti-Myc), IP/input band quantitation
Details: lysates from HEK293T cells; Input is 2.5% of lysate used for IP; parent: 100

EGFP-RABL2B, sequence (Q9UNT1 whole entry): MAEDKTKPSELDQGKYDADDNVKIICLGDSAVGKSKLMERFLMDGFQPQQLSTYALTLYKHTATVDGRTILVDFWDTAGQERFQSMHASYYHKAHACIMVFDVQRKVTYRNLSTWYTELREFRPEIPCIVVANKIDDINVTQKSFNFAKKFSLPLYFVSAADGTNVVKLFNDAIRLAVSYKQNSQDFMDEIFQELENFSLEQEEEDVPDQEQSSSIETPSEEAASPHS

Question: Which percent of parent does the source give for CD8α-(HTR6-IC3)-myc R216A; K217A; Q218A here?
Answer: Its percent of parent is 29%.

Reference: paper PMC7772773
